Measurements taken from PMC5065051, “Genetic and Biochemical Approaches for In Vivo and In Vitro Assessment of Protein Oligomerization: The Ryanodine Receptor Case Study” (Journal of Visualized Experiments : JoVE, 2016).

What was measured:
[1] = molecular target: BT8, RyR2 extreme C-terminal domain (bait) (human); test: two-hybrid; GAL4 system in yeast; quantitative liquid culture β-Gal assay (ONPG), 30 °C; normalized against the positive control pVA3 + pTD1
[2] = molecular target: the molecule itself; test: cross-linking; glutaraldehyde (0.0025% v/v, 0-60 min, RT) on HEK293 cell homogenate treated with dithiothreitol; SDS-PAGE and blot with Ab^cMyc

Row | Molecule | β-Gal activity, percent of the positive control (pVA3 + pTD1) [1] | stoichiometry N [2]
1 | RyR2 N-terminal fragment (RyR2 residues 1 - 906), GAL4 fusions for yeast two-hybrid (from UniProt Q92736 1-906) (domain or fragment) | < 10% | 
2 | RyR2 N-terminus domain (residues 1 - 906), cMyc-tagged (BT4L) or HA-tagged (AD4L), expressed in HEK293 (domain or fragment, human, UniProt Q92736 1-906, looked up, ryanodine receptor 2 (RyR2), human, residues 1-906; Two copies of the same stretch, each with ONE tag: in the co-IP cMyc-BT4L and HA-AD4L were co-expressed; in the cross-linking cMyc-BT4L was expressed alone; also called cMyc-BT4L; source: HEK293, transiently transfected (calcium phosphate), in lysate or homogenate) MADGGEGEDEIQFLRTDDEVVLQCTATIHKEQQKLCLAAEGFGNRLCFLESTSNSKNVPPDLSICTFVLEQSLSVRALQEMLANTVEKSEGQVDVEKWKFMMKTAQGGGHRTLLYGHAILLRHSYSGMYLCCLSTSRSSTDKLAFDVGLQEDTTGEACWWTIHPASKQRSEGEKVRVGDDLILVSVSSERYLHLSYGNGSLHVDAAFQQTLWSVAPISSGSEAAQGYLIGGDVLRLLHGHMDECLTVPSGEHGEEQRRTVHYEGGAVSVHARSLWRLETLRVAWSGSHIRWGQPFRLRHVTTGKYLSLMEDKNLLLMDKEKADVKSTAFTFRSSKEKLDVGVRKEVDGMGTSEIKYGDSVCYIQHVDTGLWLTYQSVDVKSVRMGSIQRKAIMHHEGHMDDGISLSRSQHEESRTARVIRSTVFLFNRFIRGLDALSKKAKASTVDLPIESVSLSLQDLIGYFHPPDEHLEHEDKQNRLRALKNRQNLFQEEGMINLVLECIDRLHVYSSAAHFADVAGREAGESWKSILNSLYELLAALIRGNRKNCAQFSGSLDWLISRLERLEASSGILEVLHCVLVESPEALNIIKEGHIKSIISLLDKHGRNHKVLDVLCSLCVCHGVAVRSNQHLICDNLLPGRDLLLQTRLVNHVSSMRPNIFLGVSEGSAQYKKWYYELMVDHTEPFVTAEATHLRVGWASTEGYSPYPGGGEEWGGNGVGDDLFSYGFDGLHLWSGCIARTVSSPNQHLLRTDDVISCCLDLSAPSISFRINGQPVQGMFENFNIDGLFFPVVSFSAGIKVRFLLGGRHGEFKFLPPPGYAPCYEAVLPKEKLKVEHSREYKQERTYTRDLLGPTVSLTQAAFTPIPVDTSQIVLPPHLERIREKLAENIHELWVMNKIELGWQYGP |  | 4
